This note sets out measurements from the supplement of paper PMC7125110.

Broadly, the kcat is the number of substrate molecules converted per active site and unit of time at saturation. The term KM denotes the concentration of substrate that gives half-maximal velocity.

The labels stand for the following.
B1: glmS ribozyme (parent)
chain: AUAAAAGCGCCAGAACUACAGAAAUGUAGUUGACGAGGAGGAGGUUUAUCGAAUUUUCGGCGGAUGCCUCCAAA

Conditions in all cases: with glucosamine-6-phosphate
The variants in data set [1] derive from B1. Nature of the data set: kcat; higher = faster cleavage; RNA array. The method in brief: (§1)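 Tracking of barcoded ribozyme variants used a hybridised Cy3 probe at 37 °C, after in situ transcription by E. coli RNA polymerase on sequenced MiSeq chips. The flowed solution held 40 μM to 10 mM glucosamine-6-phosphate in HEPES/KCl/Mg(OAc)2 buffer, and imaging ran over ~14 h. kobs was taken from exponential decay fits of normalised per-tile medians, and kcat and KM from weighted Michaelis–Menten fits.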

Variants of B1 are the subject of data set [2]. Nature of the data set: KM; higher = weaker cofactor use; RNA array. The gist of the method:
as §1

Variants of B1 are the subject of data set [3]. The experiment in a line: self-cleavage kobs at 40 uM GlcN6P; higher = faster cleavage; RNA array. The method in brief: as §1
Data set [4] covers variants of B1. Nature of the data set: self-cleavage kobs at 160 uM GlcN6P; higher = faster cleavage; RNA array. The gist of the method: as §1
The variants in data set [5] derive from B1. The experiment in a line: self-cleavage kobs at 640 uM GlcN6P; higher = faster cleavage; RNA array. The gist of the method: as §1
The variants in data set [6] derive from B1. The experiment in a line: self-cleavage kobs at 2500 uM GlcN6P; higher = faster cleavage; RNA array. The gist of the method:
as §1

Variants of B1 are the subject of data set [7]. The experiment in a line: self-cleavage kobs at 10000 uM GlcN6P; higher = faster cleavage; RNA array. The gist of the method:
as §1

± gives the standard error. For some of these results: Fewer inactive variants are shown than the library holds.

In the case of C50A G66C C67U, the kcat with glucosamine-6-phosphate [1] came out at 1.02e-05 ± 2.9e-06 s⁻¹.
Consider A14G A48U, for which the kcat with glucosamine-6-phosphate [1] is 0.00132 ± 0.00027 s⁻¹. Moreover, the KM with glucosamine-6-phosphate [2] turned out to be 2320 ± 780 µM. In addition, the “self-cleavage kobs at 40 uM GlcN6P” value in the data set with glucosamine-6-phosphate [3] was 3.34e-05 ± 1.3e-05 s⁻¹. For the same variant, the “self-cleavage kobs at 160 uM GlcN6P” value with glucosamine-6-phosphate [4] is 6.56e-05 ± 1.5e-05 s⁻¹. Moreover, in the data set with glucosamine-6-phosphate [5], the “self-cleavage kobs at 640 uM GlcN6P” value was determined as 0.000335 ± 5.6e-05 s⁻¹. In addition, the “self-cleavage kobs at 2500 uM GlcN6P” value with glucosamine-6-phosphate [6] amounted to 0.000889 ± 0.00016 s⁻¹. Besides, the “self-cleavage kobs at 10000 uM GlcN6P” value in the data set with glucosamine-6-phosphate [7] came out at 0.000999 ± 0.00013 s⁻¹.
Turning to C8A C10A G38A C50G, the kcat in the data set with glucosamine-6-phosphate [1] was 5.64e-05 ± 2.2e-05 s⁻¹. Also, the “self-cleavage kobs at 40 uM GlcN6P” value with glucosamine-6-phosphate [3] is 3.68e-05 ± 1.4e-05 s⁻¹. Moreover, the “self-cleavage kobs at 160 uM GlcN6P” value in the data set with glucosamine-6-phosphate [4] came out at 8.75e-05 ± 1.8e-05 s⁻¹. Moreover, in the data set with glucosamine-6-phosphate [5], the “self-cleavage kobs at 640 uM GlcN6P” value was 9.23e-05 ± 1.7e-05 s⁻¹. Also, the “self-cleavage kobs at 10000 uM GlcN6P” value with glucosamine-6-phosphate [7] is 3.67e-05 ± 1e-05 s⁻¹.
Consider A39C A48C, for which, in the data set with glucosamine-6-phosphate [1], the kcat was 7.62e-05 ± 2.8e-06 s⁻¹. Also, the KM with glucosamine-6-phosphate [2] amounted to 3440 ± 350 µM. In addition, the “self-cleavage kobs at 2500 uM GlcN6P” value with glucosamine-6-phosphate [6] was determined as 3.1e-05 ± 1.1e-05 s⁻¹. For the same variant, in the data set with glucosamine-6-phosphate [7], the “self-cleavage kobs at 10000 uM GlcN6P” value is 5.69e-05 ± 9.4e-06 s⁻¹.
Consider A33U U57A, for which, in the data set with glucosamine-6-phosphate [1], the kcat is under 1e-05 s⁻¹.
For the variant A33C U47A, the kcat with glucosamine-6-phosphate [1] was 0.000256 ± 2.1e-05 s⁻¹. The KM with glucosamine-6-phosphate [2] stood at 2950 ± 550 µM. In the data set with glucosamine-6-phosphate [5], the “self-cleavage kobs at 640 uM GlcN6P” value turned out to be 4.21e-05 ± 1.7e-05 s⁻¹. The “self-cleavage kobs at 2500 uM GlcN6P” value in the data set with glucosamine-6-phosphate [6] stood at 0.000136 ± 4.7e-05 s⁻¹. Also, the “self-cleavage kobs at 10000 uM GlcN6P” value with glucosamine-6-phosphate [7] is 0.000195 ± 3.4e-05 s⁻¹.
In the case of G13U G63U, the kcat in the data set with glucosamine-6-phosphate [1] is under 1e-05 s⁻¹. Moreover, the “self-cleavage kobs at 40 uM GlcN6P” value with glucosamine-6-phosphate [3] is under 1e-05 s⁻¹.
Regarding U31G U55C, in the data set with glucosamine-6-phosphate [1], the kcat came out at 0.00961 ± 0.0014 s⁻¹. In addition, in the data set with glucosamine-6-phosphate [2], the KM was determined as 1860 ± 410 µM. The “self-cleavage kobs at 40 uM GlcN6P” value with glucosamine-6-phosphate [3] amounted to 0.000203 ± 4.2e-05 s⁻¹. The “self-cleavage kobs at 160 uM GlcN6P” value with glucosamine-6-phosphate [4] came out at 0.001 ± 0.00031 s⁻¹. For the same variant, the “self-cleavage kobs at 640 uM GlcN6P” value with glucosamine-6-phosphate [5] was determined as 0.00232 ± 0.00064 s⁻¹. Also, the “self-cleavage kobs at 2500 uM GlcN6P” value in the data set with glucosamine-6-phosphate [6] is 0.00461 ± 0.0011 s⁻¹. In addition, the “self-cleavage kobs at 10000 uM GlcN6P” value with glucosamine-6-phosphate [7] stood at 0.00884 ± 0.0015 s⁻¹.
Turning to G29A C67U C71G, the kcat in the data set with glucosamine-6-phosphate [1] worked out at 4.81e-05 ± 2.2e-05 s⁻¹. In the data set with glucosamine-6-phosphate [5], the “self-cleavage kobs at 640 uM GlcN6P” value came out at 9.19e-05 ± 4.3e-05 s⁻¹.
